Laboratory results taken from article PMC3781937 (Molecular microbiology, 2013).

T1: YaaT (His6-SUMO tag removed, in the co-purified complex) (Bacillus subtilis, UniProt P37541 1-275)
T1 sequence (looked up): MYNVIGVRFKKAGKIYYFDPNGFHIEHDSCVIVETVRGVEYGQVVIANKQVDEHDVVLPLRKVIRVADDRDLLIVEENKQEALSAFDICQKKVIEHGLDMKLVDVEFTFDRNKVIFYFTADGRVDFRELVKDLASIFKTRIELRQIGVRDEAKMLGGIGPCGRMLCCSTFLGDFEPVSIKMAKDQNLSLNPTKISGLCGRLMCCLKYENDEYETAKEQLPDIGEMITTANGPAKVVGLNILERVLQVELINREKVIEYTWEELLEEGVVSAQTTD

T2: T18-Spo0F (Bacillus subtilis, UniProt P06628 1-124)
T2 sequence (looked up): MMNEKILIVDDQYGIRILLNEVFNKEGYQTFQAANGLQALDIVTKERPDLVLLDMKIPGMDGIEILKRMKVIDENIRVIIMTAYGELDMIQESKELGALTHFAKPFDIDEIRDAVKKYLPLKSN

B1: YmcA (GST tag removed) (natural protein, Bacillus subtilis, UniProt O31779 1-143, looked up)
chain: MTLYSKKDIVQQARNLAKMISETEEVDFFKRAEAQINENDKVSTIVNQIKALQKQAVNLKHYEKHEALKQVEAKIDALQEELEEIPVIQEFRDSQMEVNDLLQLVAHTISNQVTNEIITSTGGDLLKGETGSKVKHSNNSCSL
B2: YmcA-T25 (natural protein, Bacillus subtilis, UniProt O31779 1-143, looked up)
chain: B1 chain
B3: YlbF (GST tag removed, in the co-purified complex) (natural protein, Bacillus subtilis, UniProt O34412 1-149, looked up)
chain: MYATMESVRLQSEAQQLAEMILQSETAENYRNCYKRLQEDEEAGRIIRSFIKIKEQYEDVQRFGKYHPDYREISRKMREIKRELDLNDKVADFKRAENELQSILDEVSVEIGTAVSEHVKVPTGNPYFDGLSSCGGGCGSGGSCGCKVS

Tests used:
[1] = molecular target: B3; assay: SEC
[2] = molecular target: T1, YaaT (His6-SUMO tag removed, in the …); assay: SEC
[3] = molecular target: T2, T18-Spo0F; assay: two-hybrid
[4] = molecular target: the molecule itself; assay: two-hybrid

Binder: B1
stoichiometry N [1]: 2.2 fold
stoichiometry N [2]: 2.2 fold

Binder: B2
β-galactosidase activity, ratio above the T18–T25 negative control [3]: 11.3 ratio above the T18–T25 negative control
β-galactosidase activity, ratio above the T18–T25 negative control [4]: 48.3 ratio above the T18–T25 negative control

Binder: B3
binding result [2]: binds
